Consider 4 molecules from patent publication US20120316071A1 (published 2012).

Assay [1] deals with T1, rHuman ErbB2/Fc Chimera, CF (R&D Systems Cat#1129-ER) (human, UniProt P04626 23-652).
T1 construct: Bought recombinant protein; also called human epidermal growth factor 2 receptor; Fc part of the bought chimera not given
Description: MSD multispot ECL, antigen spotted on plate; Fab 0.00797 uM; blank spot 364.

Assay [2] has as its target T2, rHuman IGF-1 sR, CF (R&D Systems Cat#391-GR) (human, UniProt P08069 31-932).
T2 construct: Bought recombinant soluble receptor; also called insulin-like growth factor-1 soluble receptor
Described as above.

For assay [3], the target named is T3, rHuman Notch-1/Fc Chimera, CF (R&D Systems Cat#3647-TK) (human, UniProt P46531 19-526).
T3 construct: Bought recombinant protein; Fc part of the bought chimera not given
The description is as above.

The target in assay [4] is T4, rHuman CD44/Fc Chimera, CF (R&D Systems Cat#3660-CD) (human, UniProt P16070 21-220).
T4 construct: Bought recombinant protein; Fc part of the bought chimera not given
The description is as above.

Assay [5] concerns the target T5, rHuman Erythropoietin R/Fc Chimera, CF (R&D Systems Cat#963-ER) (human, UniProt P19235 25-250).
T5 construct: Bought recombinant protein; also called EPO R/Fc; Epo R; Fc part of the bought chimera not given
T5 sequence (looked up): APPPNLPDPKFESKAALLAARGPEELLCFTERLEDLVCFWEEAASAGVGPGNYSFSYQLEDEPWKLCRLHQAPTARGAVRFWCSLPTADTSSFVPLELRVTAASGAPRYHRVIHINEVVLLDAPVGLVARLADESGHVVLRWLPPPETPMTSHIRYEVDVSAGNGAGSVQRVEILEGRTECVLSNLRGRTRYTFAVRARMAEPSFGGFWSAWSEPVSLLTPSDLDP
The description is as above.

Assay [6] concerns the target T6, rHuman EGF R/Fc Chimera, CF (R&D Systems Cat#344-ER) (human, UniProt P00533 25-645).
T6 construct: Bought recombinant protein; also called epidermal growth factor receptor; Fc part of the bought chimera not given
The description is as above.

Assay [7] deals with T7, rHuman HGF R/c-MET/Fc Chimera, CF (R&D Systems Cat#358-MT/CF) (human, UniProt P08581 25-932).
T7 construct: Bought recombinant protein; also called HGF R/Fc; hepatocyte growth factor receptor; Fc part of the bought chimera not given
T7 sequence (P08581 25-932, change not shown): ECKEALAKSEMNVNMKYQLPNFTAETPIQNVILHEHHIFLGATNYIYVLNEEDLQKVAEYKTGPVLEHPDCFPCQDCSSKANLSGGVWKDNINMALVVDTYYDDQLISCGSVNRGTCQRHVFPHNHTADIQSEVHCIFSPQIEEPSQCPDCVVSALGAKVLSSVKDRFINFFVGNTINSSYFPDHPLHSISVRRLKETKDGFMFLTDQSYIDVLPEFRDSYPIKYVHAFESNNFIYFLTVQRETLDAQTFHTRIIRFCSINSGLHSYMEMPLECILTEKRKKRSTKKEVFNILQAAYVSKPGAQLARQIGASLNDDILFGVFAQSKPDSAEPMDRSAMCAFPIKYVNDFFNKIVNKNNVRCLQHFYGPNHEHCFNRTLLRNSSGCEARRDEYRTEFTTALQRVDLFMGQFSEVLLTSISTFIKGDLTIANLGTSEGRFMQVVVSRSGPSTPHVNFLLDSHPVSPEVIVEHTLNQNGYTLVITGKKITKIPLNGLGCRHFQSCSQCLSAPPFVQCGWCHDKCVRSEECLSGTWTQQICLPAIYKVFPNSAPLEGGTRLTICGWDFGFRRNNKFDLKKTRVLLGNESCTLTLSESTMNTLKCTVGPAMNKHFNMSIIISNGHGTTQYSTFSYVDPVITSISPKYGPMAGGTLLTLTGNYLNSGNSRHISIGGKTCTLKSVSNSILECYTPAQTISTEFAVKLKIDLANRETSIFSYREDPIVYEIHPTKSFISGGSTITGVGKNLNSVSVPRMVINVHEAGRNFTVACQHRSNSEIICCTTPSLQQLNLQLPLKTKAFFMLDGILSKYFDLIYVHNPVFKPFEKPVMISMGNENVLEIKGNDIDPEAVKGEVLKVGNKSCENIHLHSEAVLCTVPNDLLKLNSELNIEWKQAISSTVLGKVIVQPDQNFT
The description is as above.

For assay [8], the target named is T8, rHuman P-Cadherin/Fc Chimera, CF (R&D Systems Cat#861-PC) (human, UniProt P22223 108-654).
T8 construct: Bought recombinant protein; Fc part of the bought chimera not given
Described as above.

Assay [9] addresses T9, Recombinant Human DLL4 (R&D Systems Cat#1506-D4/CF) (human, UniProt Q9NR61 27-524).
T9 construct: Bought recombinant protein; also called delta-like protein 4; rHuman DLL4
The assay is described as above.

The target of assay [10] is T10, rHuman Notch-1/Fc Chimera, CF (R&D Systems Cat#3647-TK) (human, UniProt P46531 19-526).
T10 construct: Bought Fc chimera; Fc part of the bought chimera not given
Description: MSD Multispot ECL, antigen spotted on plate, Fab at 7.5 nM; blank spot 217.

The target of assay [11] is T11, Recombinant Human DLL4 (R&D Systems Cat#1506-D4/CF) (human, UniProt Q9NR61 27-524).
T11 construct: Bought recombinant protein; also called rHuman DLL4; delta-like protein 4
The description is as above.

Assay [12] deals with T12, rHuman CD44/Fc Chimera, CF (R&D Systems Cat#3660-CD) (human, UniProt P16070 21-220).
T12 construct: Bought Fc chimera; Fc part of the bought chimera not given
The description is as above.

For assay [13], the target named is T13, rHuman Erythropoietin R/Fc Chimera, CF (R&D Systems Cat#963-ER) (human, UniProt P19235 25-250).
T13 construct: Bought Fc chimera; also called EPO R/Fc; Epo R; Fc part of the bought chimera not given
T13 sequence (looked up): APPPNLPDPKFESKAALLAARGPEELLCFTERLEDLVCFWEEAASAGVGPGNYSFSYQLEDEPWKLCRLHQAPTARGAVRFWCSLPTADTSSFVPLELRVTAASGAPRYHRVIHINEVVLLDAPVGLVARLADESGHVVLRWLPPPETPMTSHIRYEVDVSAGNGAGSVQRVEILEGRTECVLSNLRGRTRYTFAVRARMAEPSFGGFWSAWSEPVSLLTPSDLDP
The assay is described as above.

The target in assay [14] is T14, rHuman P-Cadherin/Fc Chimera, CF (R&D Systems Cat#861-PC) (human, UniProt P22223 108-654).
T14 construct: Bought Fc chimera; Fc part of the bought chimera not given
The description is as above.

For assay [15], the target named is T15, rHuman Notch-1/Fc Chimera, CF (R&D Systems Cat#3647-TK) (human, UniProt P46531 19-526).
T15 construct: Bought recombinant protein; Fc part of the bought chimera not given
Description: ECL Multispot (MSD), antigen spotted; Fab 500 (µM); blank 439.

For assay [16], the target named is T16, rHuman Erythropoietin R/Fc Chimera, CF (R&D Systems Cat#963-ER) (human, UniProt P19235 25-250).
T16 construct: Bought recombinant protein; also called EPO R; EPO R/Fc; Fc part of the bought chimera not given
T16 sequence (looked up): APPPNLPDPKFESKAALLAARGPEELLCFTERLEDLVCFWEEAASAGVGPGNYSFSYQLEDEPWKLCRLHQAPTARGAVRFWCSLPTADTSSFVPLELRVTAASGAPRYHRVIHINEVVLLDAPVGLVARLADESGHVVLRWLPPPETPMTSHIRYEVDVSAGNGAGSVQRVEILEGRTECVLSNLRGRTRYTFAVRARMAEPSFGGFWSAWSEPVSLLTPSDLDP
Described as above.

For assay [17], the target named is T17, rHuman ErbB2/Fc Chimera, CF (R&D Systems Cat#1129-ER) (human, UniProt P04626 23-652).
T17 construct: Bought recombinant protein; Fc part of the bought chimera not given
Described as above.

Assay [18] deals with T18, rHuman CD44/Fc Chimera, CF (R&D Systems Cat#3660-CD) (human, UniProt P16070 21-220).
T18 construct: Bought recombinant protein; Fc part of the bought chimera not given
The description is as above.

Assay [19] deals with T19, rHuman ErbB2/Fc Chimera, CF (R&D Systems Cat#1129-ER) (human, UniProt P04626 23-652).
T19 construct: Bought Fc chimera; also called human epidermal growth factor 2 receptor; Fc part of the bought chimera not given
In words: Multispot ECL (MSD) titration; antigen spotted on plate; Fab 58.1 nM; blank spot 225.

B1: Fab VH4-34_IGHD7-27*01_IGHJ4*01 & L5_IGKJ1*01 (Fab, V domains shown)
VH: QVQLQQWGAGLLKPSETLSLTCAVYGGSFSGYYWSWIRQPPGKGLEWIGEINHSGSTNYNPSLKSRVTISVDTSKNQFSLKLSSVTAADTAVYYCARANWGDYFDYWGQGTLVTVSS
VL: DIQMTQSPSSVSASVGDRVTITCRASQGISSWLAWYQQKPGKAPKLLIYAASSLQSGVPSRFSGSGSGTDFTLTISSLQPEDFATYYCQQANSFPPWTFGQGTKVEIKR
notes: Germline library Fab expressed in E. coli; VH was cloned into Plasmid A, which adds CH1 with His6 and Flag tags
On to B1, for which the ECL signal in [1] amounted to 493; in assay [2] it was 564; in [3] it was 654; in [4], 490; in assay [5], 566; in assay [6] it was 530. Further, the ECL signal in assay [7] was found to be 419; in assay [8], 502; in assay [9], 872.

B2: Fab VH6-1_IGHD3-3*01_IGHJ4*01 & V4-3_IGLJ4*01 (Fab, V domains shown)
VH: QVQLQQSGPGLVKPSQTLSLTCAISGDSVSSNSAAWNWIRQSPSRGLEWLGRTYYRSKWYNDYAVSVKSRITINPDTSKNQFSLQLNSVTPEDTAVYYCAREYYDFWSGYYTDYFDYWGQGTLVTVSS
VL: QPVLTQPTSLSASPGASARLTCTLRSGINLGSYRIFWYQQKPESPPRYLLSYYSDSSKHQGSGVPSRFSGSKDASSNAGILVISGLQSEDEADYYCMIWHSSASFVFGGGTQLIIL
notes: Tested as a purified germline Fab made in E. coli; The VH was cloned into plasmid A (CH1 constant region, His6 and Flag tags) and the lambda VL into plasmid E (lambda CL)
In the case of B2, the ECL signal in assay [10] came to 392; in [11] it was 598; in [12] it was 444; in [13], 443; in assay [14] it was 352.

B3: Fab VH1-46_IGHD6-6*01_IGHJ1*01 S102A/S103P/S104F (APF) & L6_IGKJ1*01 (Fab, V domains shown)
VH: QVQLVQSGAEVKKPGASVKVSCKASGYTFTSYYMHWVRQAPGQGLEWMGIINPSGGSTSYAQKFQGRVTMTRDTSTSTVYMELSSLRSEDTAVYYCAREEYAPFSAEYFQHWGQGTLVTVSS
VL: not shown
notes: Tested as a Fab made in E. coli: VH cloned in Plasmid A (CH1 constant region, His6 and Flag tags), VL in Plasmid C (kappa constant region); also called H:APF & L:wt; APF triple mutant
Consider B3, for which the ECL signal stood at 785 in assay [15], 1210 in assay [16], 1580 in [17] and 874 in assay [18].

B4: Fab VH1-46_IGHD6-13*01_IGHJ4*01 & O1_IGKJ1*01 (Fab, V domains shown)
VH: QVQLVQSGAEVKKPGASVKVSCKASGYTFTSYYMHWVRQAPGQGLEWMGIINPSGGSTSYAQKFQGRVTMTRDTSTSTVYMELSSLRSEDTAVYYCAREGYSSSWYDYFDYWGQGTLVTVSS
VL: DIVMTQTPLSLPVTPGEPASISCRSSQSLLDSDDGNTYLDWYLQKPGQSPQLLIYTLSYRASGVPDRFSGSGSGTDFTLKISRVEAEDVGVYYCMQRIEFPSWTFGQGTKVEIKR
notes: Germline library Fab expressed in E. coli; VH was cloned into Plasmid A (CH1 constant region, His6 and Flag tags); The kappa VL was cloned into Plasmid C (kappa CL)
In assay [19], B4 registered an ECL signal of 322.
